Data set [1] concerns DC-SIGN mediated transfer of HIV-1 by Raji-DC-SIGN cells to CD4+ T-lymphocytes. Description: DC-SIGN mediated HIV-1 transfer assay (Raji-DC-SIGN transfer culture assay). The format is cell-based. The conditions noted are these: BSSL isolated from S4, at 30 μg/ml and 1.2 μg/ml; P<0.05. How it is done: DC-SIGN mediated HIV-1 transfer assay. The Raji and Raji-DC-SIGN cells were plated at a concentration of 2×10^4 cells/well in a 96 well format. Dilutions of human milk or human milk compounds were made in PBS containing 10% FCS and spiked with 3.7log TCID50/ml of the appropriate virus before addition to the Raji-DC-SIGN cells. As controls PBS containing 10% FCS was spiked with the same TCID50/ml of the corresponding virus before addition to Raji or Raji-DC-SIGN cells. After incubation the culture was washed with PBS before addition of CD4^+ enriched T-lymphocytes at a concentration of 1×10^5 cells/well with p24 determined on day 7. DC-SIGN specific antibody binding after exposure to human milk. […] The cells were washed and resuspended in 100 μl TSM containing 0.5% bovine serum albumin, (BSA Fraction V, Fatty Acid-Free) (Calbiochem) and the adhesion was measured by flow cytometry (BD Biosciences).
DC-SIGN mediated HIV-1 transfer assay. […] After a two hour incubation the culture was washed with PBS before addition of CD4^+ enriched T-lymphocytes at a concentration of 1×10^5 cells/well with p24 values determined on day 7.

The next data set has as its target T1, DC-SIGN-Fc (Homo sapiens, UniProt Q9NNX6).
T1 construct: the extracellular portion of DC-SIGN (amino acids 64 to 404)
T1 sequence (Q9NNX6 64-404): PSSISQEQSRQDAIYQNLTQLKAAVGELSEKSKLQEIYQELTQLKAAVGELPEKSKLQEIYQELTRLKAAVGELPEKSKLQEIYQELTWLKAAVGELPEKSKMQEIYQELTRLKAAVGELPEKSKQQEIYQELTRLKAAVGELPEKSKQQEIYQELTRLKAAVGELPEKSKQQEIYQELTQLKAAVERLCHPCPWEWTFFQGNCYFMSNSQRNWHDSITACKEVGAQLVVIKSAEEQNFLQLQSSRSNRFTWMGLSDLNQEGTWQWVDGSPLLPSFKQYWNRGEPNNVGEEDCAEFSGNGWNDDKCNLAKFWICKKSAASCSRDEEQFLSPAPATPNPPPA
Description: DC-SIGN-Fc binding ELISA. As to the method:
DC-SIGN-Fc binding ELISA. The DC-SIGN-Fc chimera contained the extracellular portion of DC-SIGN (amino acids 64 to 404) fused at the C-terminus to a human immunoglobulin (Ig) G1 Fc fragment and has been previously described (Geijtenbeek et al, 2002). Human milk or human milk compounds were diluted in 0.2M NaHCO3, coated on ELISA plates (maxisorb plate; Nunc) and incubated overnight at 4° C. or 2 hours at 37° C. This was followed by blocking with TSM containing 1% BSA for 30 minutes at 37° C. before addition of soluble DC-SIGN-Fc (5 μg/ml) for 2 hours at RT, the binding was determined by incubation of a peroxidase labeled anti-IgG1 antibody for 30 minutes at RT. DC-SIGN-Fc binding specificity was determined by pre-incubation of the DC-SIGN-FC with either 50 μg/ml DC-SIGN specific mouse antibody AZN-D1 (Geijtenbeek et al, 2000 a) or 10 mM EGTA. Single-cycle-replication transmission assay. The assay was performed as previously described (Groot et al, 2005). In short mDCs and iDCs were incubated in a 96-well-plate (35−50×10^3 DC/well) with human milk for 30 minutes at 37° C. before addition of the virus (5 ng p24/well), which was incubated for 2 hours at 37° C. The DCs were washed twice with PBS before addition of 50×10^3 LuSIV cells. After 24 hours, LuSIV cells were harvested and resuspended in 50 μl lysis buffer (25 mM Tris-Cl 7.8, 2 mM DTT, 2 mM CDTA, 10% glycerol, 1% Triton X100). The cells were then incubated for 45 minutes at room temperature while shaking, followed by 10 minutes centrifugation at 3200×g. The supernatant was transferred to a white-solid 96 well plate (Corning Costar), and 150 μl of lucibuffer (100 μg/ml BSA, 6.6 mM ATP, 15 mM MgSO4, 25 mM glycylglycine) was added. 100 μl of DE(−)Luciferin (Roche Diagnostics GmbH) was injected per well (0.28 mg/ml lucibuffer excluding ATP). 50×10^3 LuSIV cells grown without DC or HIV-1 were used to obtain the background luciferase value.
DC-SIGN-Fc binding ELISA. The DC-SIGN-Fc chimera contained the extracellular portion of DC-SIGN (amino acids 64 to 404) fused at the C-terminus to a human immunoglobulin (Ig) G1 Fc fragment which has been previously described (Geijtenbeek et al, 2002). Human milk or BSSL were diluted in 0.2 M NaHCO3, coated on ELISA plates (maxisorb plate; Nunc) and incubated overnight at 4° C. or 2 hours at 37° C. This was followed by blocking with TSM containing 1% BSA for 30 minutes at 37° C. before addition of soluble DC-SIGN-Fc (5 μg/ml) for 2 hours at RT, the binding was determined by incubation of a peroxidase labeled anti-IgG1 antibody for 30 minutes at RT. DC-SIGN-Fc binding specificity was determined by pre-incubation of the DC-SIGN-Fc with either 50 μg/ml DC-SIGN specific mouse antibody AZN-D1 (Geijtenbeek et al, 2000 a) or 10 mM EGTA.
(In general: ELISA stands for enzyme-linked immunosorbent assay.)

B1: BSSL: Bile salt stimulated lipase glycoprotein isolated from human milk (S4) (protein, UniProt P19835 21-753, looked up)
Bile salt-activated lipase: AKLGAVYTEGGFVEGVNKKLGLLGDSVDIFKGIPFAAPTKALENPQPHPGWQGTLKAKNFKKRCLQATITQDSTYGDEDCLYLNIWVPQGRKQVSRDLPVMIWIYGGAFLMGSGHGANFLNNYLYDGEEIATRGNVIVVTFNYRVGPLGFLSTGDANLPGNYGLRDQHMAIAWVKRNIAAFGGDPNNITLFGESAGGASVSLQTLSPYNKGLIRRAISQSGVALSPWVIQKNPLFWAKKVAEKVGCPVGDAARMAQCLKVTDPRALTLAYKVPLAGLEYPMLHYVGFVPVIDGDFIPADPINLYANAADIDYIAGTNNMDGHIFASIDMPAINKGNKKVTEEDFYKLVSEFTITKGLRGAKTTFDVYTESWAQDPSQENKKKTVVDFETDVLFLVPTEIALAQHRANAKSAKTYAYLFSHPSRMPVYPKWVGADHADDIQYVFGKPFATPTGYRPQDRTVSKAMIAYWTNFAKTGDPNMGDSAVPTHWEPYTTENSGYLEITKKMGSSSMKRSLRTNFLRYWTLTYLALPTVTDQEATPVPPTGDSEATPVPPTGDSETAPVPPTGDSGAPPVPPTGDSGAPPVPPTGDSGAPPVPPTGDSGAPPVPPTGDSGAPPVPPTGDSGAPPVPPTGDSGAPPVPPTGDSGAPPVPPTGDAGPPPVPPTGDSGAPPVPPTGDSGAPPVTPTGDSETAPVPPTGDSGAPPVPPTGDSEAAPVPPTDDSKEAQMPAVIRF
For B1, in data set [1], the “inhibition of DC-SIGN mediated HIV-1 transfer” value is on record as “significant inhibition”. In addition, the DC-SIGN-Fc binding entry with DC-SIGN-Fc (BSSL at 30 μg/ml, 3 μg/ml and 0.3 μg/ml, P<0.01) is “binding”. In addition, in the data set with DC-SIGN-Fc (binding not fully alleviated, data not shown), the “effect of trypsinization of purified BSSL” value is given as “trypsin sensitive”. In addition, the “effect of heat treatment of purified BSSL” value with DC-SIGN-Fc (data not shown) was “heat resistant”.

Source of the values: patent publication US20090228996A1, “Means and Methods for influencing Interactions Between Dc-Sign and Dc-Sign Ligands” (priority 2006, published 2009).
